The text below walks through data of article PMC10618255, “Cryo-EM structure of human O-GlcNAcylation enzyme pair OGT-OGA complex” (Nature Communications, 2023).

B2: full-length human OGT (O-GlcNAc transferase), C-terminal His6 (enzyme, UniProt O15294 1-1046, looked up)
chain: MASSVGNVADSTEPTKRMLSFQGLAELAHREYQAGDFEAAERHCMQLWRQEPDNTGVLLLLSSIHFQCRRLDRSAHFSTLAIKQNPLLAEAYSNLGNVYKERGQLQEAIEHYRHALRLKPDFIDGYINLAAALVAAGDMEGAVQAYVSALQYNPDLYCVRSDLGNLLKALGRLEEAKACYLKAIETQPNFAVAWSNLGCVFNAQGEIWLAIHHFEKAVTLDPNFLDAYINLGNVLKEARIFDRAVAAYLRALSLSPNHAVVHGNLACVYYEQGLIDLAIDTYRRAIELQPHFPDAYCNLANALKEKGSVAEAEDCYNTALRLCPTHADSLNNLANIKREQGNIEEAVRLYRKALEVFPEFAAAHSNLASVLQQQGKLQEALMHYKEAIRISPTFADAYSNMGNTLKEMQDVQGALQCYTRAIQINPAFADAHSNLASIHKDSGNIPEAIASYRTALKLKPDFPDAYCNLAHCLQIVCDWTDYDERMKKLVSIVADQLEKNRLPSVHPHHSMLYPLSHGFRKAIAERHGNLCLDKINVLHKPPYEHPKDLKLSDGRLRVGYVSSDFGNHPTSHLMQSIPGMHNPDKFEVFCYALSPDDGTNFRVKVMAEANHFIDLSQIPCNGKAADRIHQDGIHILVNMNGYTKGARNELFALRPAPIQAMWLGYPGTSGALFMDYIITDQETSPAEVAEQYSEKLAYMPHTFFIGDHANMFPHLKKKAVIDFKSNGHIYDNRIVLNGIDLKAFLDSLPDVKIVKMKCPDGGDNADSSNTALNMPVIPMNTIAEAVIEMINRGQIQITINGFSISNGLATTQINNKAATGEEVPRTIIVTTRSQYGLPEDAIVYCNFNQLYKIDPSTLQMWANILKRVPNSVLWLLRFPAVGEPNIQQYAQNMGLPQNRIIFSPVAPKEEHVRRGQLADVCLDTPLCNGHTTGMDVLWAGTPMVTMPGETLASRVAASQLTCLGCLELIAKNRQEYEDIAVKLGTDLEYLKKVRGKVWKQRISSPLFNTKQYTMELERLYLQMWEHYAAGNKPDHMIKPVEVTESA
notes: human O-GlcNAc transferase (OGT), full length, UniProt O15294; Scissor-shaped homodimer by cryo-EM; also called OGT WT; His6-tagged OGT; source: E. coli BL21 (DE3), purified (Ni-NTA, Resource Q, Superose 6); for the OGT-OGA complex co-expressed with OGA in BL21 (DE3); not shown: His6, C-terminal, kept

For data set [1] the following is noted: O-GlcNAc at S405.
Data set [2] has as its target B2. Briefly: pull-down; GST pull-down: GST-OGA bait on Glutathione Sepharose 4B, His6-tagged OGT or mutants as prey; all proteins 1 mg/ml; 25 mM Tris pH 8.0, 150 mM NaCl, 2 mM DTT, 0.05% NP40; 2 h at 4 °C; SDS-PAGE with Coomassie staining. The note with it: both partners purified.
Data set [3] deals with the molecule itself. Briefly: cryo-EM structure; single-particle cryo-EM of full-length human OGT alone, incubated with 1 mg/ml UDP-GlcNAc on ice; overall resolution 3.69 Å.

With “OGA (O-GlcNAcase): OGT H508A mutant bound to OGA”, the enzymatic_activity result in data set [1] is recorded as “no change”.

B1: GST-OGA (residues 371-440) (domain or fragment, human, UniProt O60502 371-440, looked up)
chain: DVLYSPQMALKLALTEWLQEFGVPHQYSSRQVAHSGAKASVVDGTPLVAAPSLNATTVVTTVYQEPIMSQ
notes: human OGA, residues 371-440, UniProt O60502, cloned into pGEX-6P-1; also called GST-OGA fragment; source: E. coli BL21 (DE3), purified (Glutathione Sepharose 4B, Resource Q, Superose 6)
On to B1, for which the binding result in data set [2] is recorded as “binds”.

One may read the stoichiometry N as the number of molecules, sites or subunits per partner or assembly. Turning to B2, in data set [3], the “stoichiometry N” value is 2.
